The data set in a line: soluble on expression in E. coli; label from the status in PepcDB or PDB records.
For “MGNELIVSVQNRIQEMQHGEGLRLPTGYSVGNALNSAYLILSDNSKGKSLLEKCHPTSVSKALLNMAIQGLSPAKNQCYFVPYGDQCTLMRSYFGSVSILERLSNVKKVHAEVIFEGDEFEIGSEDGRTVVTNFKPSFLNRDNPIIGAFAWVEQTDGIKVYTIMTKKEIYKSWSKAKTKNVQNDYPQEMAKRTVLSRAAKMFINSSSDNDLLVKAINETTEDEYDNNQPRKDITPNPPNIEKLEKSIFNQDENKKIAQDMIDSIDLNQADKDLQEELNIEFPDPSKNYLATGEVNGDVENEDGPYPF”, the “soluble on expression in E. coli” value was “not soluble”. Then “MAHHHHHHMQFHQFLCRFRNQVLLKGAFWSCPHQFRLGLHDRWKVNLVKVHIGVLGFFFKTHGESVVSGAKGDNLHGCRNGGVSALKVTNAFLNKIRNDQHTQIVPTIYQRGTPRQLSHEMSKIRILKVPMEHRRAFAHDTVIVSTLHRSVKTDVRGDTHRGTVLLHWKMHCLR”, with “not soluble”; and “MRNLTFLTRCKPLAASVLALMLLGGAAKSFANNDLPDLGTAAVNTFSLEKEMIYGDAYMRVIRSSAPMLNDPVLSQYLTELGNKLVAHATGVKTPFYFFLLQNDEINAFAFFGGHVAVHTGLFLNADNESELASVLGHEITHVTQRHLARSLEAQQKTGPATVAGLLGAILLTIAVPQAGMAALATTQAMATQSKINYTRLHEKEADRIGMQILVDAGFDPNASAEFFGKLASRYRFTTTPPQMLLTHPLPESRISEARDRAQQYPHRYVPDNLNFQLAKARIQVRFSSFSDDAVLSMFEKQLNKQTYGFKEAALYGKALALFRLKKFDESEKIVDELLKIDDNNLFYIDTKTDLLNERKDYAQAIKLLEAQRNLKPTSQVINANLANIYIEAGEPAKAIPLLEDMIFLDKQNQLPYQLLNLAYKKLGNPGMEYFSNAELMALGANYKGAIDQLNFAYRASEGNQLQLARIEARIRQFKQADREMDALKLEHHHHHH”, with “not soluble”; and “GTDGTKPECTLCGVKYSARLSIRDHIFSKQHISKVRETVGSQLDREKD”, with “soluble”. The entry for “MALHQRMFSGNKINIVRKNHPLFLGYLNEQLCAYASAQLSQKEGRLLYLGVDEKYRQQGIATALMAQVWNFLHDSCQDKITLVQSDKAQAAGKLYKKLGFKTIRRLLSAQLIVN” is “not soluble”. In the case of “MGSDKIHHHHHHMNETPLRLLEMLTQTREDLWRAAQALTERGVTRIILTGSGTSYHGALTARTFMQRWCALPVDVCWPFMLDDETLARSGKALVVGISQGGGSLSTLAAMERARNVGHITASMAGVAPATIDRAADYILTVPCGEETAGAKTKGYHCTVLNLMLLALAVAGQQQRLDGEQRRSLLLRMEKTFNHLPALVTASQAWAQTNALALRDSADIRLTGPATLFGTVQEGALKMLETLRCPVSGYEFEEFIHGIYNAFNAQSALIMLDPQPDARQDRLAQILGEWTPSIYRIGPQVENNGLNLNFPFVNDEDFAVFEYIIPLQMLCAILPPQKGINPAIPKDPQFHQKMKSKQEI”, the “soluble on expression in E. coli” value is “not soluble”. Then “MGSDKIHHHHHHMLSRQGEYKSWEITEAVLPVASNQEEAKNILTDTNVATITKFYGRYQDFMEMPAPAEKVAEYLNAHALWFSRCAEPMKVQLLGENGYALVIGRFGAFGYEVEPKIGLELLPPEEGIYRIRTIPIPDYQSPGYDVDYRASLQLIENDACSSGEVTRVEWELDLIVDLHFPRFIQRLPKSIIQSTGDRLLNQIVRQVSRRLTRKVQQDFQKSLEIPFSGNSKQKR”, with “not soluble”; and “SSPEYAMEGIFSVKSDVFSFGVLVLEIVSGKRNRGFHNSGQDNNLLGYTWENWKEGKGLEIVDSIIVDSSSSMSLFQPHEVLRCIQIGLLCVQERAEDRPKMSSVIVPFCTR”, with “soluble”. As for “STFAYIANSESDNISVIDVTSNKVTATIPVGSNPMGAVISPDGTKVYVANAHSNDVSIIDTATNNVIATVPAGSSPQGVAVSPDGKQVYVTNMASSTLSVIDTTSNTVAGTVKTGKSPLGLALSPDGKKLYVTNNGDKTVSVINTVTKAVINTVSVGRSPKGIAVTPDGTKVYVANFDSMSISVIDTVTNSVIDTVKVEAAPSGIAVNPEGTKAYVTNVDKYFNTVSMIDTGTNKITARIPVGPDPAGIAVTPDGKKVYVALSFCNTVSVIDTATNTITATMAVGKNPYASGQFIGSIPVQPVYPSADFKSNITSGYIFLSEPVQFTDLSKDATEWKWDFGDGSSSKKQNPTHTYSETGIYTVRLTVSNSNGTDSQISTVNVVLKGSPTPS”, the “soluble on expression in E. coli” value was “soluble”.

For the sequence “MSLIGFLSDRQGFEKQYHDIDLSSFGIREGISEIIASTGFEHPNAAPIGIVMKGERPFVRLFKGSHTWENVLKEKCLASNVVYDPILFVRSTFSDLVPSEFEYVDAGEFKFPVLKEAIAWVVFECINLRNTDQSLVADLVPLNAGFNERNIKELPVPNRGFNAVLEATVHATRYQLTGEEKYLELIRHYESLASKCGGDAEKKAMKLIYEALGLEGHHHHHH”, the “soluble on expression in E. coli” value is given as “soluble”. For “MSNLVLYTLHLSPPCRAVELTAKALGLELEQKTINLLTGDHLKPEFVKLNPQHTIPVLDDNGTIITESHAIMIYLVTKYGKDDSLYPKDPVKQARVNSALHFESGVLFARMRFIFERILFFGKSDIPEDRVEYVQKSYELLEDTLVDDFVAGPTMTIADFSCISTISSIMGVVPLEQSKHPRIYAWIDRLKQLPYYEEANGGGGTDLGKFVLAKKEENAKA”, the “soluble on expression in E. coli” value was “soluble”. For the sequence “MSLTQFKKFAEHISSCFSPSAIQEFSRKSKIVKRKRMFTIDHLLWLCVWQEKNMGDSSLIDMCASLWQQFGIKISPEGLNQRFNEKSTAFLKLLFHSILEKQTPDLAAIQHAYSTHFNRIRILDSTSFQLPNTFSDKYPGNGCLMQLKSAEGHHHHHH”, the “soluble on expression in E. coli” value is given as “not soluble”. Regarding “MRGSHHHHHHGSNSLSEANTKFMFDLFQQFRKSKENNIFYSPISITSALGMVLLGAKDNTAQQIKKVLHFDQVTENTTGKAATYHVDRSGNVHHQFQKLLTEFNKSTDAYELKIANKLFGEKTYLFLQEYLDAIKKFYQTSVESVDFANAPEESRKKINSWVESQTNEKIKNLIPEGNIGSNTTLVLVNAIYFKGQWEKKFNKEDTKEEKFWPNKNTYKSIQMMRQYTSFHFASLEDVQAKVLEIPYKGKDLSMIVLLPNEIDGLQKLEEKLTAEKLMEWTSLQNMRETRVDLHLPRFKVEESYDLKDTLRTMGMVDIFNGDADLSGMTGSRGLVLSGVLHKAFVEVTEEGAEAAAATAVVGFGSSPTSTNEEFHCNHPFLFFIRQNKTNSILFYGRFSSP”, the “soluble on expression in E. coli” value is “soluble”. Turning to “WGTIPGQNFIYAHLNRVIKKYDLDMIYVSGPGHGGQVMVSNSYLDGTYSEVYPNVSRDLNGLKKLCKQFSFPGGISSHMAPETPGSINEGGELGYSLAHSFGAVFDNPDLITACVVGDGEAETGPLATSWQANKFLNPVTDGAVLPILHLNGYKISNPTVLSRIPKDELEKFFEGNGWKPYFVEGEDPETMHKLMAETLDIVTEEILNIQKNARENNDCSRPKWPMIVLRTPKGWTGPKFVDGVPNEGSFRAHQVPLAVDRYHTENLDQLEEWLKSYKPEELFDENYRLIPELEELTPKGNKRMAANLH”, the “soluble on expression in E. coli” value is “not soluble”. Consider “MVIVINYKTYNESIGNRGLEIAKIAEKVSEESGITIGVAPQFVDLRMIVENVNIPVYAQHIDNINPGSHTGHILAEAIKDCGCKGTLINHSEKRMLLADIEAVINKCKNLGLETIVCTNNINTSKAVAALSPDCIAVEPPELIGTGIPVSKANPEVVEGTVRAVKEINKDVKVLCGAGISKGEDVKAALDLGAEGVLLASGVVKAKNVEEAIRELIKFI”, for which the “soluble on expression in E. coli” value was “soluble”.

Regarding “MIKILDASAFIHGYNPSIEDGEHYTTNGIVSEVVSKEDIVKLAIEYGKLKILDPKPETIEKVVKTSIETGDTISNNDIEILALAIDLGGTLYTDDYGLQNVSKKLKINYENIVSAGSKDDFVWKKICKGCKKMYPINYLDEECEVCGSPLYRKMVKNRLKKGKKFYDKKKKPKKLFLEHHHHHH”, the “soluble on expression in E. coli” value is listed as “soluble”. For “EIAVIGAAGKTGAAVVAALEGLDDVRRVVHTARRAGDFAVDLETGAGLDKALSGCRGVYFIAPNVHPDEPALLRNTMRAAASVGVDHFVYHSVAWPYTPLMPHHVDKARCEDELRTFGGLRWTVLQPCAYAENFGAVLAGTATTVELPYSPDAAFSFVALADVAEVGARVLVEGPDIHHGATYELGGPEALSVRDLCDRAGGPVSVKQVSVDEWMSRHGRDLTDDGRARLSAMFEFYDRYGFL”, the “soluble on expression in E. coli” value is “not soluble”. Turning to “ISVDTLNTKELIEAINLGADMILSVDAGNLDELIPYLKDSETAVVVLPTNYKTNYVPETIEGKIKSLEENIKKLIDAGIEKIVADPILEPINNAGCSFIESVIACREFKKRNKLPLFFGVGNVTELFDADSNGVNALLAAIGAEIGANILFTPEASAKCKFSIKELKIASKMMFLAKKRNSLPKDIGYNLINYKDKRFEEEITFNSYNIPIIKAEEDERQILDEGSFKIEIDRKNKEIVAIYFNKRREPVLIIRGKKPKEIYETAIRLNLIKKLDHASYFGRELAKAEIALRIGKKYNQDFDLF”, the “soluble on expression in E. coli” value is reported as “not soluble”.

Turning to “MGSDKIHHHHHHAQKNAAAVTLNLAKAVTQSPKTVLMSELASDVRYFPLETTDNCLLGNECSIIYAGNSIIAGDAQTRSFYRFDKNGKFMNKIGRQGQGPEEYAVGLLFFTDPDNQKLYVQDFQDIICYGFNGKFLRRIPAPHLNMGTGAVDGQGSILYCDNNYFMRKDNPQQLFLIDENGKKLKIWKGYMEPGKKYGVNLSTRDVMYCYGGDIYFKPALENLIYKIDANRKKTLAWKFDCSGKDVDVSANEIDPGKRFQSIAVQQVFESDRYFFVLYVLKNESFVGLYDKQKKSFSNVIIKDDLAAGFDFTPPGTGLGNQLANARMVGYLSKGKRYSKALLPERKKELDELINRLDEEDNPVMVVVTLK”, the “soluble on expression in E. coli” value is “not soluble”. With “MSLSTLQDLEKTLWATADKMRANMDPAEYKHIVLGLIFLKYISDSFAGRRAELERKFSDAGDDYYLGGDDPTYLASELEERDYYKEVNVFWVPEPARWESLRAAAKQVDIGKRIDDALADIEAENPQLKNILDKRYARAQLPDGKLGELVDMISIIGFSSDANKARDLLGQVYEYFLGQFASAEGKRGGQFYTPASIVKTLVAVLNPHHGKVYDPCCGSGGMFVQSEKFIEAHGGKLGDVSIYGQESNPTTWRLAAMNLAIRGMDFNLGKEPADSFIRNQHSDLRADFVLANPPFNISDWWHGSLDGDSRWVYGTPPQGNANYAWLQHMLFHLKSSGRAGIVLANGSMSSSQNSEGDIRRAMVEADVVEVMVALPGQLFFNTQIPACLWFLAKQKNKRPGEVLFIDARKLGTNISRVQIELLDSDIESIAQTVANWRGVPLEVDGEIAEYADVAGFCRSVPLAEIAEHGHVLTPGRYVGAEAVEEGHHHHHH”, the “soluble on expression in E. coli” value was “not soluble”. Turning to “MADQKEASEAAKNREIKISSSDDEIFLVPRNVIRLSNTLNTLLVDLGLDDDEGTNAEPIPVQNVTASILKKVINWCTKHQSDPIPTEDSEKKTDGSIQDWDKKFLDIDQGTLFELILAANYLDIKGLLDVACQSVANMIKGKSPDEIRRAFNIKDDFTAEEREQIRKENAWCDD”, the “soluble on expression in E. coli” value is recorded as “soluble”. For the sequence “MGSDKIHHHHHHMKKFVCSNCGYVSPKWFGRCPQCGEYDTAEEVQRRKNREGSPSLFLNLEDAGEISLERLSTGFSELDRAFRGGIVPGQVILLSGEPGIGKSTIALQIAERFAERGLVVYVSGEESPQQLKLRADRLLLKRKKDILLTLENDIDEIISSLQNKRVSFMVVDSIQTVFSSDLGSSPGSISQVKNVTMKTIDFAKRRGVPVLLVGHVTKEGEIAGPKLVEHMVDTVAYFEGDRRTGLRLLKITKNRFGPSDEVAVFELKENGFVQVENPSFTEGDADLPGNVLTCVFEGTKPFVVQIQALVSKNRTFSPKRVCKGVDVNRVMLLIAVISKYLKLPIETHDVYVNVVGGLRVTDPAADLAIALSIVSSYLEVSLHNTAAVGEIGLDGRVRKVYNINRRLNSLKSSGRIIVPPIEEEQKGVFEVRDLKEAVSIIGGEILGTPGAD”, the “soluble on expression in E. coli” value was “not soluble”.
